We go through two proteins from article PMC8211829 (Biochimica et biophysica acta. Biomembranes, 2021).

This series concerns the molecule itself. The series is described as follows: cross-linking.

B1: apoE(201–299) single Cys variant S223C (domain or fragment)
chain: QPLQERAQAWGERLRARMEEMGCRTRDRLDEVKEQVAEVRAKLEEQAQQIRLQAEAFQARLKSWFEPLVEDMQRQWAGLVEKVQAAVGTSAAPVPSDNH
Regarding B1, the binding result is listed as “binds”.

B2: apoE(201–299) single Cys variant at E255 (domain or fragment)
chain: QPLQERAQAWGERLRARMEEMGSRTRDRLDEVKEQVAEVRAKLEEQAQQIRLQACAFQARLKSWFEPLVEDMQRQWAGLVEKVQAAVGTSAAPVPSDNH
In the case of B2, the binding result is “binds”.
